In the supplement of paper PMC10126150:
± gives the standard deviation of the averaged measurements.

Tested on: ATP
Assay: switch fluorescence ratio, 500 uM ATP over buffer (Cy3 cluster intensity, sum of 5 cycles each) (fold (ratio)); higher = stronger signal-on switching upon ATP binding; sequences stand for … in TCGTCGGCAGCGTCAGATGTGTATAAGAGACAGTTTTTTTTTTTTTTTTTTTTTTTTT…TC
Details: aptamer strand: ATP DNA aptamer (quencher-CACCTGGGGGAGTATTGCGGAGGAAGG + anchor), 100 nM annealed; ATP concentration: 500 uM
Method in brief: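 Imaging in selection buffer was followed by imaging after 15 min with 500 uM ATP at 22 °C, for Cy3-labelled switching-strand clusters annealed to 100 nM quencher-labelled ATP aptamer on a modified Illumina MiSeq flow-cell. Five of these buffer/ATP cycles ran, separated by NaOH stripping and re-annealing. The fluorescence ratio per cluster is summed target-cycle over summed buffer-cycle Cy3 intensity, averaged per switch-domain sequence; clusters outside 100-1000 RFU were removed.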
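Also: ATP exposure 15 min at 22 °C before imaging.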

GGGGATGGTT and GGGGATTAAG are within error of each other in switch fluorescence ratio: 0.974 ± 0.03 for the first, 0.971 ± 0.033 for the second.

GGGGATTATA and GGGGATTTGA are within error of each other in switch fluorescence ratio: 1.01 ± 0.015 for the first, 0.995 ± 0.029 for the second.

GGGGATTTGG and GGGGCAAAAA are within error of each other in switch fluorescence ratio: 0.992 ± 0.018 for the first, 1.08 ± 0.12 for the second.

GGGGCAACGT and GGGGCAATTT are within error of each other in switch fluorescence ratio: 0.983 ± 0.012 for the first, 1.04 ± 0.052 for the second.

GGGGCACCTC and GGGGCAGCCA are within error of each other in switch fluorescence ratio: 1.04 ± 0.015 for the first, 1.03 ± 0.038 for the second.

GGGGCAGGCT and GGGGCAGGTA are within error of each other in switch fluorescence ratio: 0.886 ± 0.18 for the first, 1.04 ± 0.047 for the second.

Going from GGGGCATGCA to GGGGCATGGA, the switch fluorescence ratio falls from 0.9897 ± 0.0081 to 0.95 ± 0.018.

GGGGCATGGT and GGGGCCAAAA are within error of each other in switch fluorescence ratio: 1.01 ± 0.018 for the first, 0.947 ± 0.11 for the second.

GGGGCCAGAA and GGGGCCCCTC are within error of each other in switch fluorescence ratio: 1.012 ± 0.0029 for the first, 1.04 ± 0.092 for the second.

First: GGGGCCGAGA
Second: GGGGCCGTTG
The switch fluorescence ratio of the first is higher: 0.987 ± 0.012 for the first, 0.949 ± 0.012 for the second.

GGGGCGGGGT and GGGGCGGGTA are within error of each other in switch fluorescence ratio: 1.01 ± 0.018 for the first, 1 ± 0.078 for the second.

GGGGCGGTGG and GGGGCGGTTT are within error of each other in switch fluorescence ratio: 1.036 ± 0.0062 for the first, 1.01 ± 0.046 for the second.

GGGGCGTAGG and GGGGCGTGTG are within error of each other in switch fluorescence ratio: 1 ± 0.033 for the first, 1.01 ± 0.014 for the second.

GGGGCTATAA and GGGGCTATCC are within error of each other in switch fluorescence ratio: 1.11 ± 0.067 for the first, 1.01 ± 0.036 for the second.

GGGGCTCACG and GGGGCTTATT are within error of each other in switch fluorescence ratio: 0.985 ± 0.029 for the first, 0.975 ± 0.029 for the second.

GGGGCTTTTG and GGGGGAAAAA are within error of each other in switch fluorescence ratio: 0.98 ± 0.04 for the first, 0.998 ± 0.059 for the second.

GGGGGAAATA and GGGGGAAATG are within error of each other in switch fluorescence ratio: 0.9815 ± 0.0055 for the first, 0.994 ± 0.029 for the second.

Compared with GGGGGAAATT, GGGGGAACCA is lower in switch fluorescence ratio: 1.03 ± 0.015 for the first, 0.9993 ± 0.0072 for the second.

First: GGGGGAATCA
Second: GGGGGACTAT
The switch fluorescence ratio of the first is lower: 0.9748 ± 0.0039 for the first, 1.03 ± 0.023 for the second.

GGGGGACTTT and GGGGGAGAAT are within error of each other in switch fluorescence ratio: 1.08 ± 0.08 for the first, 0.986 ± 0.025 for the second.

GGGGGAGAGC and GGGGGAGATA are within error of each other in switch fluorescence ratio: 1.03 ± 0.043 for the first, 1 ± 0.025 for the second.

GGGGGAGATT and GGGGGAGCGA are within error of each other in switch fluorescence ratio: 0.977 ± 0.02 for the first, 0.98 ± 0.059 for the second.

GGGGGAGCTG and GGGGGAGGAG are within error of each other in switch fluorescence ratio: 0.978 ± 0.019 for the first, 0.996 ± 0.013 for the second.

GGGGGAGTTG and GGGGGATAAG are within error of each other in switch fluorescence ratio: 0.982 ± 0.044 for the first, 1 ± 0.028 for the second.

GGGGGATAGA and GGGGGATCTC are within error of each other in switch fluorescence ratio: 1.03 ± 0.034 for the first, 1.01 ± 0.021 for the second.

First: GGGGGCAAAA
Second: GGGGGCAAAT
The switch fluorescence ratio of the first is higher: 1.03 ± 0.025 for the first, 0.9935 ± 0.0068 for the second.

GGGGGCAACG and GGGGGCAACT are within error of each other in switch fluorescence ratio: 1.03 ± 0.1 for the first, 0.997 ± 0.017 for the second.

GGGGGCAGCA and GGGGGCATTT are within error of each other in switch fluorescence ratio: 1.01 ± 0.04 for the first, 1 ± 0.031 for the second.

GGGGGCCATA and GGGGGCCCGA are within error of each other in switch fluorescence ratio: 1.14 ± 0.18 for the first, 0.9925 ± 0.0076 for the second.

GGGGGCCGCT and GGGGGCCGGT are within error of each other in switch fluorescence ratio: 1.02 ± 0.036 for the first, 1.01 ± 0.058 for the second.

GGGGGCCGTT and GGGGGCCTTA are within error of each other in switch fluorescence ratio: 0.977 ± 0.058 for the first, 1.01 ± 0.047 for the second.

GGGGGCGCAT and GGGGGCGCGA are within error of each other in switch fluorescence ratio: 0.96 ± 0.066 for the first, 1.02 ± 0.035 for the second.

GGGGGCGGAG and GGGGGCGGAT are the same in switch fluorescence ratio: 0.992 ± 0.024 for the first, 0.992 ± 0.024 for the second.

GGGGGCGTTA and GGGGGCTCTG are within error of each other in switch fluorescence ratio: 1.02 ± 0.026 for the first, 0.999 ± 0.028 for the second.

GGGGGCTGTT and GGGGGCTTTG are within error of each other in switch fluorescence ratio: 1 ± 0.014 for the first, 0.978 ± 0.023 for the second.

GGGGGGACGT and GGGGGGAGG are within error of each other in switch fluorescence ratio: 1.02 ± 0.035 for the first, 1.1 ± 0.13 for the second.

Compared with GGGGGGAGGA, GGGGGGATAC is higher in switch fluorescence ratio: 1.01 ± 0.056 for the first, 1.7 ± 0.61 for the second.

First: GGGGGGATCG
Second: GGGGGGATCT
The switch fluorescence ratio of the first is lower: 0.9791 ± 0.008 for the first, 1.004 ± 0.0098 for the second.

GGGGGGATGC and GGGGGGATGT are within error of each other in switch fluorescence ratio: 1.07 ± 0.13 for the first, 0.993 ± 0.027 for the second.

GGGGGGCACC and GGGGGGCCGT are within error of each other in switch fluorescence ratio: 0.994 ± 0.021 for the first, 0.957 ± 0.025 for the second.

GGGGGGCGCT and GGGGGGCGGG are within error of each other in switch fluorescence ratio: 0.992 ± 0.018 for the first, 1.03 ± 0.051 for the second.

GGGGGGCTGA and GGGGGGGAAT are within error of each other in switch fluorescence ratio: 0.982 ± 0.018 for the first, 1 ± 0.045 for the second.

GGGGGGGATC and GGGGGGGCGT are within error of each other in switch fluorescence ratio: 1.02 ± 0.045 for the first, 0.996 ± 0.032 for the second.

GGGGGGGG and GGGGGGGGAC are within error of each other in switch fluorescence ratio: 0.994 ± 0.043 for the first, 1.02 ± 0.071 for the second.

GGGGGGGGGG and GGGGGGGTC are within error of each other in switch fluorescence ratio: 1.02 ± 0.068 for the first, 0.979 ± 0.019 for the second.

GGGGGGGTCG and GGGGGGGTG are within error of each other in switch fluorescence ratio: 0.983 ± 0.048 for the first, 1.04 ± 0.013 for the second.

GGGGGGGTGC and GGGGGGTAAC are within error of each other in switch fluorescence ratio: 1.02 ± 0.049 for the first, 1 ± 0.019 for the second.

GGGGGGTCGT and GGGGGGTCTT are within error of each other in switch fluorescence ratio: 1 ± 0.05 for the first, 1.01 ± 0.025 for the second.

GGGGGGTT and GGGGGGTTAC are within error of each other in switch fluorescence ratio: 0.9904 ± 0.005 for the first, 1.42 ± 1 for the second.

GGGGGGTTAG and GGGGGGTTCC are within error of each other in switch fluorescence ratio: 0.991 ± 0.029 for the first, 1.02 ± 0.044 for the second.
